Laboratory results published in patent US20160030629A1, “PEPTIDE-ALBUMIN HYDROGEL PROPERTIES AND ITS APPLICATIONS” (KANSAS STATE UNIVERSITY RESEARCH FOUNDATION, priority 2012, published 2016).

Key:
Format in all cases: physicochemical
[1] = pH of synthesized peptide in water solution
Source text: Peptides were synthesized on a CEM Liberty microwave peptide synthesizer (CEM Corporation, Matthews, N.C.) based on the automated base-labile 9-fluorenylmethoxycarbonyl (Fmoc) strategy with Fmoc-protected amino acids (EMD Biosciences, San Diego, Calif.). Peptides were cleaved with 95% trifluoroacetic acid (Sigma-Aldrich, Milwaukee, Wis.), 2.5% triisopropylsilane (Sigma), and 2.5% deionized water. The crude peptides were washed three times with anhydrous ether (Fisher Biotech, Fair Lawn, N.J.). After that, peptides were dissolved in acetonitrile and distilled (DI) water (50/50 v/v). The peptide solution was frozen in a −80° C. refrigerator overnight and then was freeze-dried for 48 hours by using the Labconco freeze dry system (Labconco, Kansas City, Mo.). The pH value of the peptide in water solution was 3.6. Molecular weight of the synthesized peptide was confirmed by matrix-assisted laser desorption/ionization time-of-flight mass spectroscopy on an Ultraflex II instrument (Bruker Daltronics, Billerica, Mass.). The peptide purity was confirmed by a Beckman System Gold high performance liquid chromatography (HPLC, Beckman Coulter, Inc., Fullerton, Calif.) on a phenomenex synergi 4μ Hydro-RP column (Phenomenex, Inc., Torance, Calif.) with the following gradient: 10-90% B in 20 min (A: 99.9% H2O, 0.1% TFA; B: 90% acetonitrile, 9.9% H2O, 0.1% TFA).

[2] = h9e hydrogel formation in cell culture media, serum/albumin dependence
Source text: This phenomenon was further exploited in other cell culture medium like Dulbecco's modified Eagle's medium (DMEM), Roswell Park Memorial Institute medium (RPMI), and Leibovitz medium (L-15). […] After screening the abundant serum compounds, we concentrated on one of the most abundant proteins in serum, albumin, which contains charged groups and several surface binding domains.

[3] = Rheology (storage modulus, hydrogel forming rate) of h9e/BSA mixtures; conditions: 3 mM h9e solution without BSA, 30 min test
Procedure: BSA and HSA were dissolved in water with 5 wt % concentration. The peptide solution and albumin solution were then mixed at different ratios for final mixtures of 1, 2, 3 mM h9e peptide with albumin from 0.1 to 5 wt %.
The storage (G′) and loss (G″) moduli of h9e hydrogels with different peptide/albumin ratios were measured on a rheometer system C-VOR 150 (Malvern instruments, Malvern, Worcestershire WR141XZ, United Kingdom) with a 20 mm diameter parallel plate test system. All rheological tests were carried out at 37° C. […]

[4] = Comparison of material properties of different 3D cell culture hydrogels
Source text: In addition, for in vitro 3D cell culture, cell encapsulation and isolation are two critical steps to introduce 3D spatial support for cell growth and to recover embedded cells from the scaffold matrix for downstream studies respectively. For a convenient, effective, and safe encapsulation, cells should be added simultaneously with the initialization of hydrogelation. Therefore, mild and cyto-compatible hydrogel-forming conditions are preferred, to ensure that cells survive comfortably during gel formation. However, the sol-gel transformation of currently used peptide/protein hydrogels (i.e., puramatrix gel, hydromatix peptide hydrogel, and matrigel) is triggered by adjusting pH or temperature (Table 1).

[5] = Stability of h9e-2i hydrogel and of h9e peptide solution
Procedure: The stability of h9e-2i medium hydrogel was tested. A plastic tray was placed on the bottom of the well plate. Next, 1 wt % h9e solution was mixed with 2i medium at 1:1 (v:v) ratio in a centrifuge tube and then transferred into the well plate. There was 500 μl peptide hydrogel for each well. The well plate was then placed in an incubator for 1 hour. After hydrogel was stable, another 500 μl of 2i medium was slowly added on the top of hydrogel. The top medium was replaced every other day. For mechanical testing, the top 2i medium was removed and hydrogel was transferred to a dynamic rheometer using the tray. The stability of the peptide solution was also tested using 1 wt % peptide solution stored in 4° C. refrigerator for up to 24 days. Part of the peptide solution was taken out and mixed with 2i medium with 1:1 (v:v) ratio on days 1, 6, 18 and 24.

Sequence: FLIVIGSIIGPGGDGPGGD (Derivative of spider flagelliform silk protein and a trans-membrane segment of subunit IV in the dihydropyridine sensitive human muscle L-type calcium channel) [h9e, 19 unit amphiphilic self-assembling peptide]
- pH value of the peptide in water solution [1]: 3.6
- solution to hydrogel transition ([2]; MEM without serum): did not stimulate this solution to hydrogel transitions effectively
- time to transform into a self-supporting hydrogel matrix ([2]; h9e peptide solution added into MEM with 10% serum): ≤ 1 min
- hydrogel formation ([2]; serum-free N2B27 supplemented 2i medium with 1 wt % albumin): hydrogel formation
- rheological behaviour [3]: performed as Newtonian liquid
- Porosity [4]: 50-200 nm
- Solution pH [4]: Neutral
- hydrogel formation with 2i medium after storage of solution ([5]; 1 wt % h9e solution stored at 4° C. for 24 days): could still from a hydrogel
- stability of h9e solution ([5]; recent study, no details): exceed 2 months
